According to patent publication US20210063414A1, “METHODS FOR PREVENTING AND/OR TREATING BONE LOSS CONDITIONS BY MODULATING IRISIN” (Dana-Farber Cancer Institute, Inc., priority 2018, published 2021):

How the values were obtained:
Assay in all cases: Crosslinking/co-immunoprecipitation/mass spectrometry (TMT quantitative proteomics) to identify irisin receptors
Assay type in all cases: binding
[1] = target: T1, MLO-Y4 cell surface proteins (Mus musculus, UniProt P04117); settings: co-precipitated protein Fabp4 (FABP4_MOUSE)
T1 construct: endogenous in cells; host or cells: MLO-Y4
T1 sequence (P04117 1-132): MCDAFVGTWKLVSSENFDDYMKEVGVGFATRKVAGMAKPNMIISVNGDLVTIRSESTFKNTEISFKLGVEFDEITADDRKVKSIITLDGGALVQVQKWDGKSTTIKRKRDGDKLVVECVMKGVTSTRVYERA
Outline: (§1)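 Relative protein abundance came from 6-plex TMT MS3 quantitation on an Orbitrap Fusion Lumos, after in-gel trypsin digestion of Coomassie-stained SDS-PAGE lanes. Input was a Ni-NTA pulldown (250 mM imidazole elution) of lysates from murine MLO-Y4 cells. These cells were treated on ice with His-tagged irisin or adipsin (10 nM, 20 min) in serum-free medium, then crosslinked with 1.5 mM DTSSP for 30 min.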

[2] = target: T2, MLO-Y4 cell surface proteins (Mus musculus, UniProt P16460); settings: co-precipitated protein Ass1 (ASSY_MOUSE)
T2 construct: endogenous in cells; host or cells: MLO-Y4
T2 sequence (P16460 1-412): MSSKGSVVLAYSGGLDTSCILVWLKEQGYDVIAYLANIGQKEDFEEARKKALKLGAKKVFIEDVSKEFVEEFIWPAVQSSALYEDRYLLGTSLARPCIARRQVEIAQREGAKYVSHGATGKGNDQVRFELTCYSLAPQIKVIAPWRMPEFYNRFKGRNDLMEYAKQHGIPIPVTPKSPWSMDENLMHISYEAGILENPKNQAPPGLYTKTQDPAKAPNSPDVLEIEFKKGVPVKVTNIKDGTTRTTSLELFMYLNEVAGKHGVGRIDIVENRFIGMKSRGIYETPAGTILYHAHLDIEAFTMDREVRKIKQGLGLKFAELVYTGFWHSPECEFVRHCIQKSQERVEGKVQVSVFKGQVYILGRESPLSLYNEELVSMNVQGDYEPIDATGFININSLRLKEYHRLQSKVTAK
Outline: as §1

[3] = target: T3, MLO-Y4 cell surface proteins (Mus musculus, UniProt P16675); settings: co-precipitated protein Ctsa (PPGB_MOUSE)
T3 construct: endogenous in cells; host or cells: MLO-Y4
T3 sequence (P16675 24-474): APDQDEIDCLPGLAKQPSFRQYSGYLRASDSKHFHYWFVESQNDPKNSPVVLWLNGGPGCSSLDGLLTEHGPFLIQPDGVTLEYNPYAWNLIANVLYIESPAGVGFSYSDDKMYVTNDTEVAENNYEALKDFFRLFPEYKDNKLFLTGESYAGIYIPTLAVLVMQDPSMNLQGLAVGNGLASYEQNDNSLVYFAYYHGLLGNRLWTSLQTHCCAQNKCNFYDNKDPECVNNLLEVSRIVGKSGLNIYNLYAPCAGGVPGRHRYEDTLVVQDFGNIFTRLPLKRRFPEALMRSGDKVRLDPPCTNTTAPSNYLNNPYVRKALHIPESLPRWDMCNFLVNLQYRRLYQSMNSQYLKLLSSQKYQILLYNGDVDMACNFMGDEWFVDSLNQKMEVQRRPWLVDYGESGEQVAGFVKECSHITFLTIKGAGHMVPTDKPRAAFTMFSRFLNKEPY
Outline: as §1

[4] = target: T4, MLO-Y4 cell surface proteins (Mus musculus, UniProt Q6ZPE2); settings: co-precipitated protein Sbf1 (MTMR5_MOUSE)
T4 construct: endogenous in cells; host or cells: MLO-Y4
T4 sequence (Q6ZPE2 whole entry): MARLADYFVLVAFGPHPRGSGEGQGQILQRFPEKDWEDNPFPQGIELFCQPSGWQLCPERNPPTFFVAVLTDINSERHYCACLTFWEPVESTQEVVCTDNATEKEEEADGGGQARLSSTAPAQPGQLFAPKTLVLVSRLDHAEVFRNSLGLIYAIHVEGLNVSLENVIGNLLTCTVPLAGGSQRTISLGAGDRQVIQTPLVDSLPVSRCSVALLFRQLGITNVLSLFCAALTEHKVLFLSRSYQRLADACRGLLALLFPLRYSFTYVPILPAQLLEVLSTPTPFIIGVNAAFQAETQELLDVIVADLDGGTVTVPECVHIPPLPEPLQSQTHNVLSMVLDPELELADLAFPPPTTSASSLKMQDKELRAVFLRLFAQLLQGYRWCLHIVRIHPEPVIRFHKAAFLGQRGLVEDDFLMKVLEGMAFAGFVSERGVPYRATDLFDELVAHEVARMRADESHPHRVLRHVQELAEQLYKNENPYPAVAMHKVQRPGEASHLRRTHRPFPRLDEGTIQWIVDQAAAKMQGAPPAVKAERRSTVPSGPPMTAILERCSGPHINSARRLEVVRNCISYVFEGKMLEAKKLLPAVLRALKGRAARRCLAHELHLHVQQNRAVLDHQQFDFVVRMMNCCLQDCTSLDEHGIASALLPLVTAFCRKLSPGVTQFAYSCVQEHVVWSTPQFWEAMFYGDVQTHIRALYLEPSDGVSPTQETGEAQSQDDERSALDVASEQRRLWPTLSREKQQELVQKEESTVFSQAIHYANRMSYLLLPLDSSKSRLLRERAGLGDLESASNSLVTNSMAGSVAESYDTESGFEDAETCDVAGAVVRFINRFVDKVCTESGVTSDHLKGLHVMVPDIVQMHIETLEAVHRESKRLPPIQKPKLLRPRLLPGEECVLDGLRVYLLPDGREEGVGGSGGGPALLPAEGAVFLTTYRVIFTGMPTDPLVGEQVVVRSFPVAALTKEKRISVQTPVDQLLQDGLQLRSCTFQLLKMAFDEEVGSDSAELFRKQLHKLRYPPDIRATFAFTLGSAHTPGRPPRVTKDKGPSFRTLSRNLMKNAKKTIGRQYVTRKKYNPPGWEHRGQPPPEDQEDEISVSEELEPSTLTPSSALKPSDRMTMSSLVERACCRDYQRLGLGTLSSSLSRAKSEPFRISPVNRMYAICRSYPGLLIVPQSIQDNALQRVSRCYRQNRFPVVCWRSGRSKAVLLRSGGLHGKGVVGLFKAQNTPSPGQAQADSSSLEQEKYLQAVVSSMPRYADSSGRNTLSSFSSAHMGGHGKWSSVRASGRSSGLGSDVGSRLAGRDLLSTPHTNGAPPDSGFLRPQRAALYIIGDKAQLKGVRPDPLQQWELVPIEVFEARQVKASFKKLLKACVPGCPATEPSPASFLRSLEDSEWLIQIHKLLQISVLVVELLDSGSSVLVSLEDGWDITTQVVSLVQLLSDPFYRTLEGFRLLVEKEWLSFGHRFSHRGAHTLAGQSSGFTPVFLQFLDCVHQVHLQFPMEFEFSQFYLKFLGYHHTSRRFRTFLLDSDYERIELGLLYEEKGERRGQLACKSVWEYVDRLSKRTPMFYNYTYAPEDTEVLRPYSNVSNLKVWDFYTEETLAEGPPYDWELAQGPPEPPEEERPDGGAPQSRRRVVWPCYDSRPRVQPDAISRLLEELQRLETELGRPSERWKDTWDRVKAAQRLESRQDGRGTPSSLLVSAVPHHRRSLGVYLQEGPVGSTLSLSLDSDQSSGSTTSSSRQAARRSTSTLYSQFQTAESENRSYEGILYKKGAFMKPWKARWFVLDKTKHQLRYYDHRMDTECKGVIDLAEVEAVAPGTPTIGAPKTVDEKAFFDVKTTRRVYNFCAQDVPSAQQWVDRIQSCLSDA
Outline: as §1

B1: irisin: secreted cleaved form of FNDC5; recombinant human/mouse irisin with C-terminal his tag produced in HEK293 cells (protein)
chain: DSPSAPVNVTVRHLKANSAVVSWDVLEDEVVIGFAISQQKKDVRMLRFIQEVNTTTRSCALWDLEEDTEYIVHVQAISIQGQSPASEPVLFKTPREAEKMASKNKDEVTMKE
modifications: left off: small tags and cut ends
notes: secreted cleaved form of FNDC5; recombinant human/mouse irisin with C-terminal his tag produced in HEK293 cells
How did the TMT signal-to-noise ratio [1] turn out when B1 was run?
Its TMT signal-to-noise ratio is 40.1352.

What about the “irisin/adipsin TMT signal-to-noise ratio” value [1] of the same molecule?
Its value is 0.054.

What about the TMT signal-to-noise ratio [2] of the same molecule?
The TMT signal-to-noise ratio was 3.2933.

And the “irisin/adipsin TMT signal-to-noise ratio” value [2]?
Its value is 0.012.

What about the TMT signal-to-noise ratio [3] of the same molecule?
Its TMT signal-to-noise ratio is 111.377.

What about the “irisin/adipsin TMT signal-to-noise ratio” value [3] of the same molecule?
Its value is 0.311.

And the TMT signal-to-noise ratio [4]?
The TMT signal-to-noise ratio was 37.3228.

And the “irisin/adipsin TMT signal-to-noise ratio” value [4]?
Its value is 0.525.
